Assay results reported in patent US20230183665A1, “THERMOSTABLE GLUCOCEREBROSIDASE” (TEIKYO UNIVERSITY, priority 2020, published 2023).

T1: RGC1 (Oryza sativa subsp. japonica, UniProt Q8L7J2)
T1 construct: The resulting solution was used as rice-derived glucocerebrosidase (RGC1); from tissue; host or cells: stems of rice (Oryza sativa L. cv. Nipponbare)
T1 sequence (Q8L7J2 38-521 limits assumed): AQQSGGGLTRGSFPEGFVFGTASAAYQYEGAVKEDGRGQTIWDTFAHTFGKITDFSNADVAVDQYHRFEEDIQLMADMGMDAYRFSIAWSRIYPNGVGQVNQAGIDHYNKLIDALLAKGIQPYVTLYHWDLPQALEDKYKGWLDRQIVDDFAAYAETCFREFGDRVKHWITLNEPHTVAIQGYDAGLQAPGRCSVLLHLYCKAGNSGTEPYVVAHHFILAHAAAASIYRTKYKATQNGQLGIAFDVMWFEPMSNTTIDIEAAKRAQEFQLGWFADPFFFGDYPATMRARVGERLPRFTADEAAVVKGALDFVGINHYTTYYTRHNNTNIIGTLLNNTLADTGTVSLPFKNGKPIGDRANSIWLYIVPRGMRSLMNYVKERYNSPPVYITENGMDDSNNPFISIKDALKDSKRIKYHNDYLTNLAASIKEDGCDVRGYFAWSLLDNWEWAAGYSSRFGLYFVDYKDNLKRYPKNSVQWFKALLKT


Columns and labels:
RGC1 = target: T1, RGC1; experiment: Substrate specificity of RGC1: ceramide generated from glucosylceramide or synthetic β-glucoside substrates (Example 3); format: biochemical, rice (Oryza sativa L. cv. Nipponbare); conditions: enzyme RGC1, 12.5 μM substrate, pH 5.5, 37° C., 15 minutes; for Relative activity (%): activity with d18:1(4E)-C8:0-GluCer defined as 100, average of five tests
Procedure: (§1) The glucocerebrosidase activity of the fraction was measured as follows: a predetermined amount of sample was added to a 50 mM acetate buffer solution (pH 5.5) containing 100 μM glucosylceramide (cerebroside B), 0.1% Tween 20, and 0.05% sodium cholate, and incubated at 37° C. for 15 minutes. Subsequently, a 4-fold amount of ethanol was added to the obtained reaction solution, mixed therewith, and then centrifuged at 15000 rpm for 20 minutes. The centrifuged supernatant was subjected to high-performance liquid chromatography analysis. In the high-performance liquid chromatography analysis, the sample was injected to TSKgel ODS-120T column (4.6 mm×30 cm), and a solvent having an ethanol concentration of 83% was flowed at a flow rate of 0.8 mL/min, followed by detection in a UV detector (ultraviolet absorption wavelength: 215 nm) to thereby measure the amount of ceramide newly generated through enzymatic reaction. The amount of ceramide was determined by using, as a standard, ceramide generated from cerebroside B by imiglucerase (manufactured by Sanofi S. A.), human-derived glucocerebrosidase. The molecular weight of the generated ceramide was examined by negative LC-MS (manufactured by Agilent Technologies, Inc.) to thereby confirm that it was ceramide generated from cerebroside B (ESI-MS m/z: 564.5[M-H]^−). Glucocerebrosidase activity per mL of the enzyme solution was calculated when the amount of the enzyme that generated 1 μmol of ceramide for 1 minute in the enzymatic reaction solution was defined as 1 unit (U).
RGC1 obtained in Example 2 was added to 12.5 μM glucosylceramide (one of the 12 animal-derived, plant-derived, or filamentous fungus-derived ones in Table 2 below) or synthetic β-glucoside, and a 50 mM acetate buffer solution (pH 5.5) containing 0.1% Tween 20 and 0.05% sodium cholate, and incubated at 37° C. for 15 minutes. Subsequently, a 4-fold amount of ethanol was added to the obtained reaction solution, mixed therewith, and then centrifuged under a condition of 15000 rpm for 20 minutes. The amount of ceramide in the supernatant was measured by high-performance liquid chromatography using various reverse-phase columns to thereby determine glucocerebrosidase activity. The amount of ceramide was determined by using, as a standard, ceramide generated from the glucosylceramide by imiglucerase. The glucocerebrosidase activity was determined as relative activity when activity in the case of using animal-derived glucosylceramide d18:1(4E)-C8:0-GluCer as a substrate was defined as 100 (rightmost column of Table 2 below). This test was conducted five times, and average relative activity was determined therefrom.

[1] = Optimum temperature for glucocerebrosidase activity (Examples 5, 12, 20); format: biochemical
Procedure: as §1
RGC1 obtained in Example 2 and imiglucerase were each added to a 50 mM acetate buffer solution (pH 5.5) containing 100 μM glucosylceramide (cerebroside B), 0.1% Tween 20, and 0.05% sodium cholate, and incubated at each temperature for 15 minutes. Subsequently, a 4-fold amount of ethanol was added to the obtained reaction solution, mixed therewith, and then centrifuged under a condition of 15000 rpm for 20 minutes. The supernatant was subjected to high-performance liquid chromatography analysis to measure the amount of ceramide generated through enzymatic reaction. The high-performance liquid chromatography analysis was carried out in the same manner as in Example 2. The amount of ceramide and enzymatic activity were also calculated in the same manner as in Example 2. A temperature that attained the highest glucocerebrosidase activity was regarded as the optimum temperature. This test was conducted three times, and an average value was determined therefrom.
The optimum temperatures for the glucocerebrosidase activity of SGC1 obtained in Example 11 and imiglucerase were confirmed by the same method as in Example 5.
Enzyme extracts derived from various plants which were obtained in accordance with Example 19, the purified rice-derived RGC1 mentioned above and the purified soybean-derived SGC1 mentioned above were each added to a 50 mM sodium acetate buffer solution (pH 5.5) containing 100 μM glucosylceramide (cerebroside B), 0.1% Tween 20, and 0.05% sodium cholate, and incubated at each temperature for 15 minutes. Subsequently, a 4-fold amount of ethanol was added to the obtained reaction solution, mixed therewith, and then centrifuged at 15000 rpm for 20 minutes. The supernatant was subjected to high-performance liquid chromatography analysis to measure the amount of ceramide generated through enzymatic reaction. The high-performance liquid chromatography analysis was carried out in the same manner as in Example 5. The amount of ceramide and enzymatic activity were also calculated in the same manner as in Example 5. As a result, a temperature that attained the highest glucocerebrosidase activity was regarded as the optimum temperature. This test was conducted three times, and an average value was determined therefrom.

[2] = Thermostability: relative residual glucocerebrosidase activity after incubation at pH 5 and pH 7 (Examples 6, 13); format: physicochemical; conditions: 45° C.; pH 5 for 1 to 31 hours, pH 7 for 0.3 to 5 hours; FIGS. 3 and 4
Procedure: The glucocerebrosidase activity of the fraction was measured as follows: a predetermined amount of sample was added to a 50 mM acetate buffer solution (pH 5.5) containing 100 μM glucosylceramide (cerebroside B), 0.1% Tween 20, and 0.05% sodium cholate, and incubated at 37° C. for 15 minutes. Subsequently, a 4-fold amount of ethanol was added to the obtained reaction solution, mixed therewith, and then centrifuged at 15000 rpm for 20 minutes. The centrifuged supernatant was subjected to high-performance liquid chromatography analysis. […] The amount of ceramide was determined by using, as a standard, ceramide generated from cerebroside B by imiglucerase (manufactured by Sanofi S. A.), human-derived glucocerebrosidase. […] Glucocerebrosidase activity per mL of the enzyme solution was calculated when the amount of the enzyme that generated 1 μmol of ceramide for 1 minute in the enzymatic reaction solution was defined as 1 unit (U).
RGC1 obtained in Example 2 and imiglucerase were each incubated at pH 5 simulating lysosome (50 mM acetate buffer solution (pH 5.0) containing 0.1% Triton X-100 and 0.05% sodium cholate) at 37° C. for 6 to 106 hours or at pH 7 simulating cytoplasm (50 mM potassium phosphate buffer solution (pH 7.0) containing 0.1% Triton X-100 and 0.05% sodium cholate) at 37° C. for 4 to 48 hours. […] This test was conducted three times, and an average value was determined therefrom. […]

[3] = Example 12, same method as Example 5
[4] = Example 20, 100 μM cerebroside B, pH 5.5, 15 minutes at each temperature, average of three tests

| Molecule | reaction of RGC1 with the substrate (in words) (RGC1) | Relative activity (%) (RGC1) | Optimum temperature (° C.) [1, 3] [°C] | Optimum temperature (° C.) [1, 4] [°C] | also measured |
| --- | --- | --- | --- | --- | --- |
| CCCCCCCCCCCCC/C=C/[C@@H](O)[C@H](CO[C@@H]1O[C@H](CO)[C@@H](O[C@@H]2O[C@H](CO)[C@H](O)[C@H](O[C@]3(C(=O)O)C[C@H](O)[C@@H](NC(C)=O)C([C@H](O)[C@H](O)CO)O3)[C@H]2O)[C@H](O)C1O)NC(=O)CCCCCCCCCCCCCCCCC (some centres unmarked) [d18:1(4E)-C18:0-GM3] | rarely reacted | – | – | – | – |
| Imiglucerase: human-derived glucocerebrosidase produced in Chinese hamster ovary cells by gene recombination (Sanofi S. A.), belonging to GH30 (protein, UniProt P04062 40-536, looked up, imiglucerase, human-derived glucocerebrosidase produced in Chinese hamster ovary cells by gene recombination (Sanofi S. A.), belonging to GH30) Lysosomal acid …: ARPCIPKSFGYSSVVCVCNATYCDSFDPPTFPALGTFSRYESTRSGRRMELSMGPIQANHTGTGLLLTLQPEQKFQKVKGFGGAMTDAAALNILALSPPAQNLLLKSYFSEEGIGYNIIRVPMASCDFSIRTYTYADTPDDFQLHNFSLPEEDTKLKIPLIHRALQLAQRPVSLLASPWTSPTWLKTNGAVNGKGSLKGQPGDIYHQTWARYFVKFLDAYAEHKLQFWAVTAENEPSAGLLSGYPFQCLGFTPEHQRDFIARDLGPTLANSTHHNVRLLMLDDQRLLLPHWAKVVLTDPEAAKYVHGIAVHWYLDFLAPAKATLGETHRLFPNTMLFASEACVGSKFWEQSVRLGSWDRGMQYSHSIITNLLYHVVGWTDWNLALNPEGGPNWVRNFVDSPIIVDITKDTFYKQPMFYHLGHFSKFIPEGSQRVGLVASQKNDLDAVALMHPDGSAVVVVLNRSSKDVPLTIKDPAVGFLETISPGYSIHTYLWRRQ | – | – | 42.5 | 42.5 | Optimum temperature (° C.) ([1]; Example 5, 100 μM cerebroside B, pH 5.5, 15 minutes at each temperature, average of three tests): 42.5 °C |
| SGC1: soybean-derived glucocerebrosidase purified from soybean stems; identical to β-glucosidase 40, belongs to GH1; SEQ ID NO: 2 (protein, Oryza sativa L. cv. Nipponbare) MAFRGGTMLILTMMALLEIQICSSEINRGNFPNGFVFGTASSAFQYEGAVKEDGRGPSVWDTFSHTFGKIIDFSNADVAVDQYHRYEEDIQLMKDMGMDAYRFSISWSRIFPNGYGQINQAGVDHYNKLINALLAKGIEPYVTLYHWDLPQALENKYSGWLNASIIMDFATYAETCFQKFGDRVKHWITFNEPHTFATQGYDVGLQAPGRCSILLHLFCRAGNSATEPYIVAHNVLLSHATVADIYRKKYKKIQGGSLGVAFDVIWYEPLTNTKEDIDAAQRAQDFQLGWFLDPLMFGDYPSSMRTRVGSRLPKFSQSEAALVKGSLDFVGINHYTTFYAKDNSTNLIGTLLHDSIADSGAVTLPFNGTKAISERASSIWLYIVPQSMRSLMIYIKQKYGNPPVYITENGMDDPNSIFISIKDALKDEKRIRYHTGYLSYLLASIKDGCNVKGYFVWSLLDNWEWSAGYTSRFGLYFVDYKDNLKRYPKQSVEWFKNFLKPTK | – | – | 64.0 | 64.0 | stability (relative residual activity) compared with imiglucerase [2]: evidently much superior in stability to imiglucerase |

Second part, led by results:

| reaction of RGC1 with the substrate (in words) (RGC1) | Relative activity (%) (RGC1) | Molecule | Optimum temperature (° C.) [1, 3] [°C] | Optimum temperature (° C.) [1, 4] [°C] | also measured |
| --- | --- | --- | --- | --- | --- |
| – | 116.7 | CCCCCCCCCCCCCC[C@@H](O)C(=O)N[C@@H](CO[C@@H]1O[C@H](CO)[C@@H](O)[C@H](O)[C@H]1O)[C@H](O)/C=C/CC/C=C(\C)CCCCCCCCC [d19:2(4E,8E,9Me)-C16h:0-GluCer, (4E,8E)-N-D-2′-hydroxypalmitoyl-1-O-β-D-glucopyranosyl-9-methyl-4,8-sphingadienine] | – | – | – |
| – | 113.2 | CCCCCCCCCCCCCC/C=C/[C@@H](O)C(=O)N[C@@H](CO[C@@H]1O[C@H](CO)[C@@H](O)[C@H](O)[C@H]1O)[C@H](O)/C=C/CC/C=C(\C)CCCCCCCCC [d19:2(4E,8E,9Me)-C18h:1-GluCer, (4E,8E)-N-D-2′-hydroxy-(E)-3′-octadecenoyl-1-O-β-D-glucopyranosyl-9-methyl-4,8-sphingadienine] | – | – | – |
| rarely reacted | 2.5 | O=[N+]([O-])c1ccc(O[C@@H]2O[C@H](CO)[C@@H](O)[C@H](O)[C@H]2O)cc1 [pNP-β-glucoside, 4-nitrophenyl-β-D-glucopyranoside] | – | – | – |
